Patent US20250345446A1 (Draupnir Bio ApS, priority 2022, published 2025)
Where two headings read alike, the source gives them in different places. Each block holds one molecule with its values, some of them ahead of it. Residues, ends and D or L forms follow the SMILES beside them. No end group written: not given here. *: point of attachment. Biotin = O=C1N[C@H]2[C@H](CS[C@H]2CCCCC(=O)*)N1

Assays:
[1] = target: T1, soluble ectodomain of sortilin-6his (Homo sapiens, UniProt Q99523, V650M); assay: MST binding to soluble ectodomain of sortilin-6his; settings: MST, read-out: KD score, binding to sortilin (Kd)
T1 construct: the soluble ectodomain of sortilin-6his is measured by microscale thermophoresis (MST)

[2] = target: T2, Sortilin-6His (Homo sapiens (Human), UniProt Q99523 78-755); assay: MST on labelled sortilin-6his ectodomain; KD score: +++ <25 nM, ++ 25-250 nM, + 250-2500 nM, 0 >2500 nM
T2 construct: In MST it was labelled non-covalently with RED-tris-NTA; also called soluble ectodomain of sortilin-6his; fluorescent sortilin-6his
T2 sequence (Q99523 78-755 V650M limits assumed): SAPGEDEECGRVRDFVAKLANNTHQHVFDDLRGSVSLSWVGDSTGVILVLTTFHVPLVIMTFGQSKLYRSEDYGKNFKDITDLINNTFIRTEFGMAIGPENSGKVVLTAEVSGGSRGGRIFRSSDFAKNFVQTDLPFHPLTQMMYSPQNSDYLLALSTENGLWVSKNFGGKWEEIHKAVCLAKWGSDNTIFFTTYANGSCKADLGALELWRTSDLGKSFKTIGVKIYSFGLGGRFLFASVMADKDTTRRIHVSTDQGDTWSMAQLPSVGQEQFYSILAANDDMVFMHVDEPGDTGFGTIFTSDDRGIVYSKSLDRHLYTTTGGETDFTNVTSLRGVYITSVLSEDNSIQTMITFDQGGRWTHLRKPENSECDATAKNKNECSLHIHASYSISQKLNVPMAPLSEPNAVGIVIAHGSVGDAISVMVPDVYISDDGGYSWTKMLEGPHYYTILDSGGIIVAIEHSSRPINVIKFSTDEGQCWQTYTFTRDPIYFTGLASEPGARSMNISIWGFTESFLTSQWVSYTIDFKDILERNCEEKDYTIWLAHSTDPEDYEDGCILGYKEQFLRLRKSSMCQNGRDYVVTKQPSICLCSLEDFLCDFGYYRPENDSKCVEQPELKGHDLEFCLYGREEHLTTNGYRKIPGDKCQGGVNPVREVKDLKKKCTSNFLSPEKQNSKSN

[3] = target: T2, Sortilin-6His; assay: MST on labelled sortilin-6his ectodomain; KD score: ++ <100 nM, + 100-2000 nM
[4] = Table 1, biotin-linker-peptide bifunctional compounds
[5] = Table 3, monofunctional peptides

Kd [1, 4]: < 100 nM
Molecule: CC(C)C[C@H](NC(=O)[C@H](CC(C)C)NC(=O)[C@H](CCC(N)=O)NC(=O)[C@H](Cc1ccccc1)NC(=O)CNC(=O)CNC(=O)[C@H](CO)NC(=O)CNC(=O)CNC(=O)CCCC[C@@H]1SC[C@@H]2NC(=O)N[C@@H]21)C(=O)O [compound 144] (Biotin-GGSGGFQLL-OH)

Kd [1, 4]: < 100 nM
Molecule: CC(C)C[C@H](NC(=O)[C@H](CC(C)C)NC(=O)[C@H](CCC(N)=O)NC(=O)[C@H](CCCNC(=N)N)NC(=O)CNC(=O)CNC(=O)CNC(=O)CNC(=O)[C@H](CO)NC(=O)CNC(=O)CNC(=O)CCCC[C@@H]1SC[C@@H]2NC(=O)N[C@@H]21)C(=O)O [compound 150] (Biotin-GGSGGGGRQLL-OH)

Kd [1, 4]: 100 to 2000 nM
Molecule: CC(C)C[C@H](NC(=O)[C@H](CC(C)C)NC(=O)[C@H](CCC(N)=O)NC(=O)[C@H](CCCNC(=N)N)NC(=O)[C@H](CO)NC(=O)CNC(=O)CNC(=O)CCCC[C@@H]1SC[C@@H]2NC(=O)N[C@@H]21)C(=O)O [compound 152] (Biotin-GGSRQLL-OH)

Kd [1, 4]: < 100 nM
Molecule: CC(C)C[C@H](NC(=O)[C@H](CC(C)C)NC(=O)[C@H](CCC(N)=O)NC(=O)[C@H](CCCNC(=N)N)NC(=O)CNC(=O)CNC(=O)CCCC[C@@H]1SC[C@@H]2NC(=O)N[C@@H]21)C(=O)O [compound 153] (Biotin-GGRQLL-OH)

Kd [1, 4]: < 100 nM
Molecule: CC(C)C[C@H](NC(=O)[C@H](CC(C)C)NC(=O)[C@H](CCC(N)=O)NC(=O)[C@H](CCCNC(=N)N)NC(=O)CCCC[C@@H]1SC[C@@H]2NC(=O)N[C@@H]21)C(=O)O [compound 154] (Biotin-RQLL-OH)

Kd [1, 5]: > 2500 nM
Molecule: CC[C@H](C)[C@H](NC(=O)[C@H](CC(C)C)NC(=O)[C@H](CCC(N)=O)NC(=O)[C@@H](N)CCCNC(=N)N)C(=O)O [compound 163] (H-RQLI-OH)

Kd [1, 5]: > 2500 nM
Molecule: CC(C)C[C@H](NC(=O)[C@H](CCC(N)=O)NC(=O)[C@@H](N)CCCNC(=N)N)C(=O)N[C@@H](Cc1ccccc1)C(=O)O [compound 164] (H-RQLF-OH)

Kd [1, 5]: > 2500 nM
Molecule: CSCC[C@H](NC(=O)[C@H](CC(C)C)NC(=O)[C@H](CCC(N)=O)NC(=O)[C@@H](N)CCCNC(=N)N)C(=O)O [compound 165] (H-RQLM-OH)

Kd [1, 5]: > 2500 nM
Molecule: CC(C)C[C@H](NC(=O)[C@H](CCC(N)=O)NC(=O)[C@@H](N)CCCNC(=N)N)C(=O)O [compound 166] (H-Arg-Gln-Leu-OH)

Kd [1, 5]: 250 to 2500 nM
Molecule: CC(C)C[C@H](NC(=O)[C@H](CCCNC(=N)N)NC(=O)[C@H](C)NC(=O)[C@H](C)N)C(=O)O [compound 196, AARL-OH] (H-AARL-OH)

Kd [1, 5]: 25 to 250 nM
Molecule: APLRDPAPRQLL-OH [compound 57]

Kd [1, 5]: 25 to 250 nM
Molecule: GGSGGGGSGGGGSGGRQLL-OH [compound 167]

Kd [1, 5]: > 2500 nM
Molecule: H-GVSWGLR-OH [compound 52]

Kd [1, 5]: > 2500 nM
Molecule: H-ITVDPRLFKKRRLRSPRVLF-NH2 [compound 48]

Kd [1, 5]: < 25 nM
Molecule: H-WSGPIGVSWGLRAAAAGFQLL-OH [compound 179]

Kd [1, 5]: > 2500 nM
Molecule: LYENK-NH2 [compound 65]

Kd [1, 5]: > 2500 nM
Molecule: PIPLV [compound 197, PIPLV-OH]

Kd [1, 5]: < 25 nM
Molecule: REALRWDAPLRDPAPRQLL-OH [compound 54]

Kd [1, 5]: < 25 nM
Molecule: REAPRWDAPLRDPALFQLL-OH [compound 58]

Kd [1, 5]: < 25 nM
Molecule: REAPRWDAPLRDPALRYLL-OH [compound 59]

Kd [1, 5]: 25 to 250 nM
Molecule: REAPRWDAPLRDPALRYYL-OH [compound 61]

Molecule: TGGFM-OH [compound 62]
Kd [1, 5]: > 2500 nM

KD [2]: < 25 nM
B1: PYILKRQLYENKPRRPYIL (peptide)
peptide: PYILKRQLYENKPRRPYIL

KD [2]: 25 to 250 nM
B2: APLRDPAPRQLL (peptide)
peptide: APLRDPAPRQLL

KD [3]: < 100 nM
B3: Biotin-GGSGGGGFQLL-OH (peptide)
peptide: Biotin-GGSGGGGFQLL-OH
SMILES: CC(C)C[C@H](NC(=O)[C@H](CC(C)C)NC(=O)[C@H](CCC(N)=O)NC(=O)[C@H](Cc1ccccc1)NC(=O)CNC(=O)CNC(=O)CNC(=O)CNC(=O)[C@H](CO)NC(=O)CNC(=O)CNC(=O)CCCC[C@@H]1SC[C@@H]2NC(=O)N[C@@H]21)C(=O)O

KD [3]: < 100 nM
B4: Biotin-GGSGGGGRQLL-OH (peptide)
peptide: Biotin-GGSGGGGRQLL-OH
SMILES: CC(C)C[C@H](NC(=O)[C@H](CC(C)C)NC(=O)[C@H](CCC(N)=O)NC(=O)[C@H](CCCNC(=N)N)NC(=O)CNC(=O)CNC(=O)CNC(=O)CNC(=O)[C@H](CO)NC(=O)CNC(=O)CNC(=O)CCCC[C@@H]1SC[C@@H]2NC(=O)N[C@@H]21)C(=O)O

KD [2]: 250 to 2500 nM
B5: H-FYIL-OH (peptide)
peptide: H-FYIL-OH

KD [2]: 250 to 2500 nM
B6: H-RYFL-OH (peptide)
peptide: H-RYFL-OH

KD [2]: 250 to 2500 nM
B7: IQLL (peptide)
peptide: IQLL

KD [2]: 250 to 2500 nM
B8: H-RQYL-OH (peptide)
peptide: H-RQYL-OH

KD [2]: 25 to 250 nM
B9: H-RYYL-OH (peptide)
peptide: H-RYYL-OH

KD [2]: 25 to 250 nM
B10: H-PYIL-OH (peptide)
peptide: H-PYIL-OH

KD [2]: 250 to 2500 nM
B11: H-RQFL-OH (peptide)
peptide: H-RQFL-OH

KD [2]: 25 to 250 nM
B12: H-PQLL-OH (peptide)
peptide: H-PQLL-OH

KD [2]: 250 to 2500 nM
B13: H-RYIL-OH (peptide)
peptide: H-RYIL-OH

KD [2]: 25 to 250 nM
B14: H-KQLL-OH (peptide)
peptide: H-KQLL-OH

KD [2]: 250 to 2500 nM
B15: H-PYLL-OH (peptide)
peptide: H-PYLL-OH

KD [2]: 250 to 2500 nM
B16: LQLL (peptide)
peptide: LQLL

KD [2]: 25 to 250 nM
B17: LYENKPRRPYIL (peptide)
peptide: LYENKPRRPYIL

KD [2]: 25 to 250 nM
B18: GGSGGGGSGGGGSGGRQLL-OH (peptide)
peptide: GGSGGGGSGGGGSGGRQLL-OH

KD [2]: < 25 nM
B19: WSGPIGVSWGLRAAAAGFQLL-OH (peptide)
peptide: WSGPIGVSWGLRAAAAGFQLL-OH

KD [2]: < 25 nM
B20: REAPRWDAPLRDPALRQLL (peptide)
peptide: REAPRWDAPLRDPALRQLL

KD [2]: 25 to 250 nM
B21: REAPRWDAPLRDPALRYYL (peptide)
peptide: REAPRWDAPLRDPALRYYL

KD [2]: < 25 nM
B22: REAPRWDAPLRDPALFQLL (peptide)
peptide: REAPRWDAPLRDPALFQLL

KD [2]: < 25 nM
B23: REAPRWDAPLRDPALRYLL (peptide)
peptide: REAPRWDAPLRDPALRYLL

KD [2]: < 25 nM
B24: REALRWDAPLRDPAPRQLL (peptide)
peptide: REALRWDAPLRDPAPRQLL
